Patent US20100055103A1 (published 2010)
Where two headings read alike, the source gives them in different places.

What was measured:
Experiment in all cases: BIAcore
Bi-specific = biological target: Bi-specific
[1] = biological target: T1, Human IL-17F (R&D Systems, cat #1335-IL-025/CF) (UniProt Q96PD4 31-163)
T1 chain: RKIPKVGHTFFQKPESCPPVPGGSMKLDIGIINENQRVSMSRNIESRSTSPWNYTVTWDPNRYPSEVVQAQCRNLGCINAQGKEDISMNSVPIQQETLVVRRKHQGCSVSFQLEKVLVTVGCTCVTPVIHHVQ

[2] = biological target: T2, Human IL-17A (R&D Systems, cat #317-IL-050/CF) (UniProt Q16552 20-155)
[3] = biological target: T3, Recombinant human IL-17A/F heterodimer (UniProt Q16552 24-155; Q96PD4 31-163)
[4] = biological target: T1, Human IL-17F (R&D Systems, cat …)
[5] = biological target: T1, Human IL-17F (R&D Systems, cat …)
rhesus IL17A (PUR17200) = biological target: rhesus IL17A (PUR17200)
[6] = biological target: T1, Human IL-17F (R&D Systems, cat …)
[7] = biological target: T2, Human IL-17A (R&D Systems, cat …); remark: listed apart in the source
[8] = biological target: T3, Recombinant human IL-17A/F heterodimer; remark: listed apart in the source
cyno IL17F [9] = biological target: cyno IL17F
[10] = biological target: T2, Human IL-17A (R&D Systems, cat …); remark: listed apart in the source
[11] = biological target: T3, Recombinant human IL-17A/F heterodimer; remark: listed apart in the source
cyno IL17F [12] = biological target: cyno IL17F; remark: listed apart in the source

T2 sequence (Q16552 20-155): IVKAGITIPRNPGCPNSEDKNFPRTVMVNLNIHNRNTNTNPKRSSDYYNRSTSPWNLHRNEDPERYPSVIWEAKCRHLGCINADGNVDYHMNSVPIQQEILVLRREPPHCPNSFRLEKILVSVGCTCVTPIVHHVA

B1: IL17F (ligand)
chain: RKIPKVGHTFFQKPESCPPVPGGSMKLDIGIINENQRVSMSRNIESRSTSPWNYTVTWDPNRYPSEVVQAQCRNLGCINAQGKEDISMNSVPIQQETLVVRRKHQGCSVSFQLEKVLVTVGCTCVTPVIHHVQ
- Kd (Bi-specific): 0.71 nM

B2: YW279.1.20 (antibody, V domains shown)
VH: EVQLVESGGGLVQPGGSLRLSCAASGFSFTSYMMSWVRQAPGKGLEWVSTIYPESGATDYADSVKGRFTISADTSKNTAYLQMNSLRAEDTAVYYCAREGYYYSTSIKYYPWFDYWGQGTLVTVSS
VL: DIQMTQSPSSLSASVGDRVTITCRASQRIKRYLAWYQQKPGKAPKLLIYGASSRASGVPSRFSGSGSGTDFTLTISSLQPEDFATYYCQQRFSQHITFGQGTKVEIKR
- Kd [1]: 1.59 nM

B3: YW279.1.22 (antibody, V domains shown)
VH: EVQLVESGGGLVQPGGSLRLSCAASGFSFPSYFISWVRQAPGKGLEWVSMIYPVSGATVYADSVKGRFTISADTSKNTAYLQMNSLRAEDTAVYYCAREGYYYSTSIKYYPWFDYWGQGTLVTVSS
VL: DIQMTQSPSSLSASVGDRVTITCRASQSISSYLAWYQQKPGKAPKLLIYGASSRASGVPSRFSGSGSGTDFTLTISSLQPEDFATYYCQQRYSLPITFGQGTKVEIKR
- Kd [1]: 1.76 nM
- Kd [2]: 0.118 nM
- Kd [3]: 0.69 nM

B4: YW279.1.21 (antibody, V domains shown)
VH: EVQLVESGGGLVQPGGSLRLSCAASGFSFTSYMMSWVRQAPGKGLEWVSTIYPESGATDYADSVKGRFTISADTSKNTAYLQMNSLRAEDTAVYYCAREGYYYSTSIKYYPWFDYWGQGTLVTVSS
VL: DIQMTQSPSSLSASVGDRVTITCRASQSISSYLAWYQQKPGKAPKLLIYGASSRASGVPSRFSGSGSGTDFTLTISSLQPEDFATYYCQQRYSWHTTFGQGTKVEIKR
- Kd [1]: 0.0823 nM
- Kd [2]: 5.09 nM
- Kd [3]: 11.8 nM

B5: YW265.01 (antibody, V domains shown)
VL: DIQMTQSPSSLSASVGDRVTITCRASQSISSYLAWYQQKPGKAPKLLIYGASSRASGVPSRFSGSGSGTDFTLTISSLQPEDFATYYCQQYYSSPLTFGQGTKVEIKR
VH: EVQLVESGGGLVQPGGSLRLSCAASGYSFTSPYISWVRQAPGKGLEWVASIFYYSGATDYADSVKGRFTISADTSKNTAYLQMNSLRAEDTAVYYCARGGYGYNQWFYSIYQSYFDYWGQ
- Kd [4]: 0.62 nM

B6: YW278.15.9 (antibody, V domains shown)
VH: EVQLVESGGGLVQPGGSLRLSCAASGFTFTDYDISWVRQAPGKGLEWVASIDPYEGYTYYADSVKGRFTISADTSKNTAYLQMNSLRAEDTAVYYCARYLYWSYVMDYWGQGTLVTVSS
VL: DIQMTQSPSSLSASVGDRVTITCRASQDVSTAVAWYQQKPGKAPKLLIYSASFLYSGVPSRFSGSGSGTDFTLTISSLQPEDFATYYCQQSQNPQTTFGQGTKVEIKR
- Kd [1]: 0.0181 nM
- Kd [2]: 0.0155 nM
- Kd [3]: 0.0229 nM

B7: YW278.15.18.C55S (antibody, V domains shown)
VH: EVQLVESGGGLVQPGGSLRLSCAASGFTFTDYDISWVRQAPGKGLEWVASISPPDSYTYYADSVKGRFTISADTSKNTAYLQMNSLRAEDTAVYYCARYLYWSYVMDYWGQGTLVTVSS
VL: DIQMTQSPSSLSASVGDRVTITCRASQDVSTAVAWYQQKPGKAPKLLIYSASFLYSGVPSRFSGSGSGTDFTLTISSLQPEDFATYYCQQSYTAKLTFGQGTKVEIKR
- Kd [5]: 0.019 nM

B8: YW278.15.18 (antibody, V domains shown)
VH: EVQLVESGGGLVQPGGSLRLSCAASGFTFTDYDISWVRQAPGKGLEWVASISPPDCYTYYADSVKGRFTISADTSKNTAYLQMNSLRAEDTAVYYCARYLYWSYVMDYWGQGTLVTVSS
VL: DIQMTQSPSSLSASVGDRVTITCRASQDVSTAVAWYQQKPGKAPKLLIYSASFLYSGVPSRFSGSGSGTDFTLTISSLQPEDFATYYCQQSYTAKLTFGQGTKVEIKR
- Kd (rhesus IL17A (PUR17200)): 0.0381 nM
- Kd [6]: 0.0135 nM
- Kd [7]: 0.0137 nM
- Kd [8]: 0.014 nM
- Kd (cyno IL17F [9]): 0.0861 nM
- Kd [5]: 0.0291 nM
- Kd [10]: 0.0189 nM
- Kd [11]: 0.0225 nM
- Kd (cyno IL17F [12]): 0.0632 nM

B9: YW278.15.2.D54E (antibody, V domains shown)
VH: EVQLVESGGGLVQPGGSLRLSCAASGFSFIDYDISWVRQAPGKGLEWVASISPYEGYTYYADSVKGRFTISADTSKNTAYLQMNSLRAEDTAVYYCARYLYWSYVMDYWGQGTLVTVSS
VL: DIQMTQSPSSLSASVGDRVTITCRASQDVSTAVAWYQQKPGKAPKLLIYSASFLYSGVPSRFSGSGSGTDFTLTISSLQPEDFATYYCQQYYIYPATFGQGTKVEIKR
- Kd [1]: 0.012 nM

B10: YW278.15.2 (antibody, V domains shown)
VH: EVQLVESGGGLVQPGGSLRLSCAASGFSFIDYDISWVRQAPGKGLEWVASISPYDGYTYYADSVKGRFTISADTSKNTAYLQMNSLRAEDTAVYYCARYLYWSYVMDYWGQGTLVTVSS
VL: DIQMTQSPSSLSASVGDRVTITCRASQDVSTAVAWYQQKPGKAPKLLIYSASFLYSGVPSRFSGSGSGTDFTLTISSLQPEDFATYYCQQYYIYPATFGQGTKVEIKR
- Kd [6]: 0.0315 nM
- Kd [7]: 0.0111 nM
- Kd [8]: 0.0104 nM
- Kd (cyno IL17F [12]): 0.209 nM

B11: YW278.15.3 (antibody, V domains shown)
VH: EVQLVESGGGLVQPGGSLRLSCAASGFTFTDYDISWVRQAPGKGLEWVASISPSDGYTYYADSVKGRFTISADTSKNTAYLQMNSLRAEDTAVYYCARYLYWSYVMDYWGQGTLVTVSS
VL: DIQMTQSPSSLSASVGDRVTITCRASQVISSSLAWYQQKPGKAPKLLIYGASFFYSGVPSRFSGSGSGTDFTLTISSLQPEDFATYYCQQHNDLPLTFGQGTKVEIKR
- Kd [6]: 0.0283 nM
- Kd [7]: 0.0152 nM
- Kd [8]: 0.0167 nM
- Kd [1]: 0.115 nM
- Kd [2]: 0.0242 nM
- Kd [3]: 0.0935 nM

B12: YW278.15.18.C55A (antibody, V domains shown)
VH: EVQLVESGGGLVQPGGSLRLSCAASGFTFTDYDISWVRQAPGKGLEWVASISPPDAYTYYADSVKGRFTISADTSKNTAYLQMNSLRAEDTAVYYCARYLYWSYVMDYWGQGTLVTVSS
VL: DIQMTQSPSSLSASVGDRVTITCRASQDVSTAVAWYQQKPGKAPKLLIYSASFLYSGVPSRFSGSGSGTDFTLTISSLQPEDFATYYCQQSYTAKLTFGQGTKVEIKR
- Kd [5]: 0.0186 nM
